Source: patent publication US20030068675, “Position dependent recognition of GNN nucleotide triplets by zinc fingers” (published 2003)

Columns and labels:
Assay in all cases: EMSA
Conditions in all cases: tags: MBP fusion
ZFP SBS#716 = biological target: T1, ZFP SBS#716 (synthetic)
T1 chain: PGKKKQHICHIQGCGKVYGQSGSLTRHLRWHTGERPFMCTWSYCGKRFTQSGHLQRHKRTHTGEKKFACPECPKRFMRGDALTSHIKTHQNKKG
In short: (§1)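 Purified ZFP was titrated against labeled double-stranded target (1 nM or lower, at least 10-fold below expected Kd) carrying the natural binding site with flanks. Binding buffer was 10 mM Tris pH 7.5, 100 mM KCl, 1 mM MgCl2, 0.1 mM ZnCl2, 5 mM DTT, 10% glycerol, 0.02% BSA, with equilibration for at least 45 min. Bound and free target were separated on a 10% polyacrylamide gel.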

ZFP SBS#718 = biological target: T2, ZFP SBS#718 (synthetic)
T2 chain: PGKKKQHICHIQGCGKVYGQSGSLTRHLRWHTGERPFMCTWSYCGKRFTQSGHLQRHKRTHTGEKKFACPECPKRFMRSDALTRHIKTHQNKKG
In short: as §1

ZFP SBS#717 = ZFP SBS#717 (synthetic)
In short: as §1

ZFP SBS#731 = ZFP SBS#731 (synthetic)
In short: as §1

ZFP SBS#706 = biological target: T3, ZFP SBS#706 (synthetic, UniProt P08047)
T3 chain: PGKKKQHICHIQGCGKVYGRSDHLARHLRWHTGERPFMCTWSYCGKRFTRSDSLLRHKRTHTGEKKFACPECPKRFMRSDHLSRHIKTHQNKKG
In short: as §1

ZFP SBS#705 = biological target: T4, ZFP SBS#705 (synthetic, UniProt P08047)
T4 chain: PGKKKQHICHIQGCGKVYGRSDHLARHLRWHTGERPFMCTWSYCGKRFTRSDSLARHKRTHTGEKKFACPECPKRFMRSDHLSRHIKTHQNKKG
In short: as §1

ZFP SBS#714 = biological target: T5, ZFP SBS#714 (synthetic)
T5 chain: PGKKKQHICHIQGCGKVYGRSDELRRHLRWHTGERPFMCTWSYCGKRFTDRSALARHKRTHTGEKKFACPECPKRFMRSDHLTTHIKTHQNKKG
In short: as §1

ZFP SBS#715 = biological target: T6, ZFP SBS#715 (synthetic)
T6 chain: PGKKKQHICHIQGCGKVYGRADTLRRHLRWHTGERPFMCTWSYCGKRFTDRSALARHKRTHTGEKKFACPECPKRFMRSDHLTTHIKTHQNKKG
In short: as §1

ZFP SBS#695 = biological target: T7, ZFP SBS#695 (synthetic)
T7 chain: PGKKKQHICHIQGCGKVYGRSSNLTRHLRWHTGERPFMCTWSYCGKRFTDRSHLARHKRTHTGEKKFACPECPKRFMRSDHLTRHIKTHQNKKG
In short: as §1

ZFP SBS#708 = biological target: T8, ZFP SBS#708 (synthetic)
T8 chain: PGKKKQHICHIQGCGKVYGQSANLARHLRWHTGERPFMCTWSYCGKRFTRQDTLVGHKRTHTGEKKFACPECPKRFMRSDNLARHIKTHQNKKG
In short: as §1

ZFP SBS#709 = biological target: T9, ZFP SBS#709 (synthetic)
T9 chain: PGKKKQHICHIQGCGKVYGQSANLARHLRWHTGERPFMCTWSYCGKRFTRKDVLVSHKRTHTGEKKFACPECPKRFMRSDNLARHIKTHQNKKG
In short: as §1

ZFP SBS#711 = biological target: T10, ZFP SBS#711 (synthetic)
T10 chain: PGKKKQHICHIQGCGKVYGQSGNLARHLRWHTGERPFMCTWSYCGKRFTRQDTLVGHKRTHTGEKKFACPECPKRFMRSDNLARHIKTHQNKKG
In short: as §1

ZFP SBS#601 = biological target: T11, ZFP SBS#601 (synthetic)
T11 chain: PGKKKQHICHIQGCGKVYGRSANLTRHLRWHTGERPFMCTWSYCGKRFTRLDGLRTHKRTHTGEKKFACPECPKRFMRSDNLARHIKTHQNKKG
In short: as §1

ZFP SBS#602 = biological target: T12, ZFP SBS#602 (synthetic)
T12 chain: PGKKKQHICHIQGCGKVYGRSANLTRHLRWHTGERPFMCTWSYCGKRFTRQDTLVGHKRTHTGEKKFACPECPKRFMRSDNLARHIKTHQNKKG
In short: as §1

ZFP SBS#600 = ZFP SBS#600 (synthetic)
In short: as §1

ZFP SBS#603 = ZFP SBS#603 (synthetic)
In short: as §1

ZFP SBS#710 = ZFP SBS#710 (synthetic)
In short: as §1

ZFP SBS#565 = ZFP SBS#565 (synthetic)
In short: as §1

ZFP SBS#426 = ZFP SBS#426 (synthetic)
In short: as §1

ZFP SBS#424 = ZFP SBS#424 (synthetic)
In short: as §1

ZFP SBS#425 = ZFP SBS#425 (synthetic)
In short: as §1

ZFP SBS#722 = biological target: T13, ZFP SBS#722 (synthetic)
T13 chain: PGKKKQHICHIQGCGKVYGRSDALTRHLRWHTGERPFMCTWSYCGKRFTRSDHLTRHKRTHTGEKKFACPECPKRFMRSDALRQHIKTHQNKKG
In short: as §1

ZFP SBS#694 = biological target: T14, ZFP SBS#694 (synthetic)
T14 chain: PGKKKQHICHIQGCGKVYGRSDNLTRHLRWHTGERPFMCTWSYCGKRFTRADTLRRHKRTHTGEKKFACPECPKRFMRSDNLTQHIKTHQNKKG
In short: as §1

ZFP SBS#693 = biological target: T15, ZFP SBS#693 (synthetic)
T15 chain: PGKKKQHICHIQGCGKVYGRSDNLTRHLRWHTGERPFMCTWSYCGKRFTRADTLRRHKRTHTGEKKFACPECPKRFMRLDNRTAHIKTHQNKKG
In short: as §1

ZFP SBS#689 = biological target: T16, ZFP SBS#689 (synthetic)
T16 chain: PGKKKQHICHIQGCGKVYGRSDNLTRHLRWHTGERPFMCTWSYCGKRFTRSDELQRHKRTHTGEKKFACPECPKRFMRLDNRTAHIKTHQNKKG
In short: as §1

ZFP SBS#692 = biological target: T17, ZFP SBS#692 (synthetic, UniProt P08047)
T17 chain: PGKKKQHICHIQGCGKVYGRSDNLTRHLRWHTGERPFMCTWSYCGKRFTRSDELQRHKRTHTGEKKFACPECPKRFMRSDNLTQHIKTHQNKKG
In short: as §1

ZFP SBS#700 = ZFP SBS#700 (synthetic)
In short: as §1

ZFP SBS#699 = ZFP SBS#699 (synthetic)
In short: as §1

ZFP SBS#719 = biological target: T18, ZFP SBS#719 (synthetic)
T18 chain: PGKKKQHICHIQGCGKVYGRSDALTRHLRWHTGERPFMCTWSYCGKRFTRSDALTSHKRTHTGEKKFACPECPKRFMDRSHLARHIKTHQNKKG
In short: as §1

ZFP SBS#724 = biological target: T19, ZFP SBS#724 (synthetic)
T19 chain: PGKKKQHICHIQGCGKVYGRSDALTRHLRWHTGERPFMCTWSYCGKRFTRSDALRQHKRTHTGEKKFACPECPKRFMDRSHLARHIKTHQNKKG
In short: as §1

ZFP SBS#702 = biological target: T20, ZFP SBS#702 (synthetic)
T20 chain: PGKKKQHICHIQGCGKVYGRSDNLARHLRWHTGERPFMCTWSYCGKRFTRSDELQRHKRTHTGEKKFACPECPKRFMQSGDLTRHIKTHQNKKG
In short: as §1

ZFP SBS#701 = ZFP SBS#701 (synthetic)
In short: as §1

ZFP SBS#720 = biological target: T21, ZFP SBS#720 (synthetic)
T21 chain: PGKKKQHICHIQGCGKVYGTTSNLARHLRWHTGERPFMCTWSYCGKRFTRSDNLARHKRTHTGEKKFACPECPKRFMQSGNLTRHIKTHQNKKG
In short: as §1

ZFP SBS#726 = ZFP SBS#726 (synthetic)
In short: as §1

ZFP SBS#427 = ZFP SBS#427 (synthetic)
In short: as §1

ZFP SBS#374 = ZFP SBS#374 (synthetic)
In short: as §1

ZFP SBS#725 = ZFP SBS#725 (synthetic)
In short: as §1

ZFP SBS#698 = biological target: T22, ZFP SBS#698 (synthetic)
T22 chain: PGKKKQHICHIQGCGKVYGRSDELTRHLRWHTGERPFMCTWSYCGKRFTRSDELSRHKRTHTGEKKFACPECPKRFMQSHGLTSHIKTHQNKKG
In short: as §1

ZFP SBS#697 = biological target: T23, ZFP SBS#697 (synthetic)
T23 chain: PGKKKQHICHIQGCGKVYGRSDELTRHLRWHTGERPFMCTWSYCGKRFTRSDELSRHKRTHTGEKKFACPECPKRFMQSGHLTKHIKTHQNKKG
In short: as §1

Chain of ZFP SBS#710 (synthetic) (chain, as listed by the source): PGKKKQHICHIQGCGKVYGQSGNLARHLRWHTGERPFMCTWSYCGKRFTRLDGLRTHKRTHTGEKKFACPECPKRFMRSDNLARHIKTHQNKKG
Chain of ZFP SBS#427 (synthetic) (chain, as listed by the source): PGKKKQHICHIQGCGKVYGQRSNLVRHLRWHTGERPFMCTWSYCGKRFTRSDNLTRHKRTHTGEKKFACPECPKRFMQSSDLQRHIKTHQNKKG
Chain of ZFP SBS#600 (synthetic) (chain, as listed by the source): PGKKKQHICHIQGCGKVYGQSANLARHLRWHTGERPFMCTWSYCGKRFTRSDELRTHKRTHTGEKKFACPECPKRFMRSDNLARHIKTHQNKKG
Chain of ZFP SBS#426 (synthetic) (chain, as listed by the source): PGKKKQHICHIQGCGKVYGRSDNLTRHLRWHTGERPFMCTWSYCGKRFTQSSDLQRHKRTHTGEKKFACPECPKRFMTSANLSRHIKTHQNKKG
Chain of ZFP SBS#374 (synthetic) (chain, as listed by the source): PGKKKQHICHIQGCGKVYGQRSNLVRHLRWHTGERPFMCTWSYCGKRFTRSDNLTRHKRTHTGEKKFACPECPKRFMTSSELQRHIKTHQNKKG
Chain of ZFP SBS#731 (synthetic) (chain, as listed by the source): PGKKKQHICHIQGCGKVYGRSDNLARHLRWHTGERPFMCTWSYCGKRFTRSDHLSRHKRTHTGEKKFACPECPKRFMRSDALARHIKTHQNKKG
Chain of ZFP SBS#424 (synthetic) (chain, as listed by the source): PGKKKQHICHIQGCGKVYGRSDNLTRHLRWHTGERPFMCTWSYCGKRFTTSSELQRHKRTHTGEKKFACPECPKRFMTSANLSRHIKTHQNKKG
Chain of ZFP SBS#565 (synthetic) (chain, as listed by the source): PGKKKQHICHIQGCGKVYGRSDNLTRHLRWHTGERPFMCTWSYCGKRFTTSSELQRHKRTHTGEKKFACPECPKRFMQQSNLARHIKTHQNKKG
Chain of ZFP SBS#699 (synthetic) (chain, as listed by the source): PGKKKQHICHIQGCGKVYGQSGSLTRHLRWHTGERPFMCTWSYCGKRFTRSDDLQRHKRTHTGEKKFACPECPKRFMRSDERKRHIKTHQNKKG
Chain of ZFP SBS#726 (synthetic) (chain, as listed by the source): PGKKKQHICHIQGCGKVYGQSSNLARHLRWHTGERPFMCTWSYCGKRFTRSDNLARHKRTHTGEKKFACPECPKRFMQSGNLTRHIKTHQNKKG
Chain of ZFP SBS#603 (synthetic) (chain, as listed by the source): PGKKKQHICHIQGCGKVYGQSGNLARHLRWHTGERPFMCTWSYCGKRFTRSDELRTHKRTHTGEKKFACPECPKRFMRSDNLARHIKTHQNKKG
Chain of ZFP SBS#725 (synthetic) (chain, as listed by the source): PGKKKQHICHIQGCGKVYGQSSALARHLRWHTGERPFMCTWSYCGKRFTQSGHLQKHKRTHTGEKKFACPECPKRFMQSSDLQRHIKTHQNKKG
Chain of ZFP SBS#701 (synthetic) (chain, as listed by the source): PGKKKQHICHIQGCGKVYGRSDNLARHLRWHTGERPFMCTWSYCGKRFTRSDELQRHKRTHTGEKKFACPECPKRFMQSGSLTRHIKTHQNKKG
Chain of ZFP SBS#700 (synthetic) (chain, as listed by the source): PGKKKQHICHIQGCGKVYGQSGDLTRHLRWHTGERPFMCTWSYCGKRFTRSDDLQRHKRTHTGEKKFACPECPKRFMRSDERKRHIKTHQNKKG

B1: TTGGGAGCAC (dsDNA)
DNA 1: TTGGGAGCAC
DNA 2: GTGCTCCCAA
Kd (ZFP SBS#716): 200 nM | Kd (ZFP SBS#718): 108 nM | Kd (ZFP SBS#717): 150 nM

B2: GTGGGGGAGA (dsDNA)
DNA 1: GTGGGGGAGA
DNA 2: TCTCCCCCAC
Kd (ZFP SBS#731): 12 nM

B3: GGGGTGGGGC (dsDNA)
DNA 1: GGGGTGGGGC
DNA 2: GCCCCACCCC
Kd (ZFP SBS#706): 0.05 nM | Kd (ZFP SBS#705): 0.01 nM

B4: TGGGTCGCGG (dsDNA)
DNA 1: TGGGTCGCGG
DNA 2: CCGCGACCCA
Kd (ZFP SBS#714): 200 nM | Kd (ZFP SBS#715): 0.46 nM

B5: GGGGGCGAGC (dsDNA)
DNA 1: GGGGGCGAGC
DNA 2: GCTCGCCCCC
Kd (ZFP SBS#695): 850 nM

B6: GAGTCGGAA (dsDNA)
DNA 1: GAGTCGGAA
DNA 2: TTCCGACTC
Kd (ZFP SBS#708): 300 nM | Kd (ZFP SBS#709): 400 nM | Kd (ZFP SBS#711): 400 nM | Kd (ZFP SBS#601): 607 nM | Kd (ZFP SBS#602): 617 nM | Kd (ZFP SBS#600): 207 nM | Kd (ZFP SBS#603): 167 nM | Kd (ZFP SBS#710): 400 nM

B7: GATGCTGAG (dsDNA)
DNA 1: GATGCTGAG
DNA 2: CTCAGCATC
Kd (ZFP SBS#565): 100 nM | Kd (ZFP SBS#426): 5.5 nM | Kd (ZFP SBS#424): 100 nM | Kd (ZFP SBS#425): 25 nM

B8: ATGGGGGTGG (dsDNA)
DNA 1: ATGGGGGTGG
DNA 2: CCACCCCCAT
Kd (ZFP SBS#722): 0.7 nM

B9: AAGGCGGAGA (dsDNA)
DNA 1: AAGGCGGAGA
DNA 2: TCTCCGCCTT
Kd (ZFP SBS#694): 28.5 nM | Kd (ZFP SBS#693): 95 nM | Kd (ZFP SBS#689): 82.5 nM | Kd (ZFP SBS#692): 51 nM

B10: GCGGCGGCAG (dsDNA)
DNA 1: GCGGCGGCAG
DNA 2: CTGCCGCCGC
Kd (ZFP SBS#700): 45 nM | Kd (ZFP SBS#699): 21.5 nM

B11: GGCATGGTGG (dsDNA)
DNA 1: GGCATGGTGG
DNA 2: CCACCATGCC
Kd (ZFP SBS#719): 20 nM | Kd (ZFP SBS#724): 2.5 nM

B12: GCAGCGGAGC (dsDNA)
DNA 1: GCAGCGGAGC
DNA 2: GCTCCGCTGC
Kd (ZFP SBS#702): 73.5 nM | Kd (ZFP SBS#701): 50.5 nM

B13: GAAGAGGATG (dsDNA)
DNA 1: GAAGAGGATG
DNA 2: CATCCTCTTC
Kd (ZFP SBS#720): 1.6 nM | Kd (ZFP SBS#726): 1.5 nM

B14: GCTGAGGAA (dsDNA)
DNA 1: GCTGAGGAA
DNA 2: TTCCTCAGC
Kd (ZFP SBS#427): 1 nM | Kd (ZFP SBS#374): 3.3 nM

B15: GCTTGAGTTA (dsDNA)
DNA 1: GCTTGAGTTA
DNA 2: TAACTCAAGC
Kd (ZFP SBS#725): 3000 nM

B16: TGAGCGGCGG (dsDNA)
DNA 1: TGAGCGGCGG
DNA 2: CCGCCGCTCA
Kd (ZFP SBS#698): 300 nM | Kd (ZFP SBS#697): 200 nM
